This note sets out measurements from patent US20060257938A1, “Method of screening for drugs that block ligand binding to a lipid binding protein” (priority 2005, published 2006).

Common to all, as to type: binding
Assay [1] in a line: Probe fluorescence ratio response to linolenic acid relative to ADIFAB2. As to conditions: response relative to ADIFAB2. In outline:
(§1)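 Each fatty acid's response was expressed relative to ADIFAB2, the rI-FABP-L72A probe, as ΔR/ΔRreference. ΔR is the change in the background-corrected two-wavelength intensity ratio R=Fλ1/Fλ2 from its analyte-free baseline R0. Emission was read near about 420-480 nm for unbound and about 495-580 nm for FFA-bound probe.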

A short description of assay [2]: Probe fluorescence ratio response to linoleic acid relative to ADIFAB2. Particulars: response relative to ADIFAB2. In outline:
as §1

Assay [3] is described as follows: Probe fluorescence ratio response to oleic acid relative to ADIFAB2. Particulars: response relative to ADIFAB2. In outline: as §1
Assay [4] can be described thus: Probe fluorescence ratio response to arachidonic acid relative to ADIFAB2. Particulars: arachidonic acid; response relative to ADIFAB2. Summed up:
as §1

Assay [5] can be described thus: Probe fluorescence ratio response to palmitic acid relative to ADIFAB2. As to conditions: response relative to ADIFAB2. In outline:
as §1

Values joined by “and” are separate entries in the source; they are usually repeats but may differ in a detail not shown here. Identical values can stand only once.

B1: 36I1, 72A (protein, listed as Rattus norvegicus)
chain: AFDGTWKVDRNENYEKFMEKMGINVVKRKLGAHDNIKLTITQEGNKFTVKESSNFRNIDVVFELGVDFAYSAADGTELTGTWTMEGNKLVGKFKRVDNGKELIAVREISGNELIQTYTYEGVEAKRIFKKE
modifications: PEPTIDE (1)...(131) wild-type rat intestinal fatty acid binding protein
Regarding B1, the “DR/DR LNA” value in assay [1] turned out to be 1.13. Besides, the “DR/DR LA” value in assay [2] was found to be 1.11. The “DR/DR OA” value in assay [3] was 0.95. Besides, in assay [4], the “DR/DR AA” value stood at 1.01. Further, the “DR/DR PA” value in assay [5] is 0.80.

B2: 36Y, 72A (protein, listed as Rattus norvegicus)
chain: AFDGTWKVDRNENYEKFMEKMGINVVKRKLGAHDNYKLTITQEGNKFTVKESSNFRNIDVVFELGVDFAYSAADGTELTGTWTMEGNKLVGKFKRVDNGKELIAVREISGNELIQTYTYEGVEAKRIFKKE
modifications: PEPTIDE (1)...(131) wild-type rat intestinal fatty acid binding protein
As for B2, in assay [1], the “DR/DR LNA” value worked out at 0.68. Moreover, in assay [2], the “DR/DR LA” value is reported as 0.75. In addition, the “DR/DR OA” value in assay [3] is 0.66. The “DR/DR AA” value in assay [4] came out at 0.68. For the same molecule, the “DR/DR PA” value in assay [5] amounted to 0.60.

B3: 36N, 72A (protein, listed as Rattus norvegicus)
chain: AFDGTWKVDRNENYEKFMEKMGINVVKRKLGAHDNNKLTITQEGNKFTVKESSNFRNIDVVFELGVDFAYSAADGTELTGTWTMEGNKLVGKFKRVDNGKELIAVREISGNELIQTYTYEGVEAKRIFKKE
modifications: PEPTIDE (1)...(131) wild-type rat intestinal fatty acid binding protein
For B3, the “DR/DR LNA” value in assay [1] is on record as 0.42. The “DR/DR LA” value in assay [2] is on record as 0.47. Moreover, the “DR/DR OA” value in assay [3] was 0.38. In assay [4], the “DR/DR AA” value came to 0.47. The “DR/DR PA” value in assay [5] came out at 0.39.

B4: 36R, 72A (protein, listed as Rattus norvegicus)
chain: AFDGTWKVDRNENYEKFMEKMGINVVKRKLGAHDNRKLTITQEGNKFTVKESSNFRNIDVVFELGVDFAYSAADGTELTGTWTMEGNKLVGKFKRVDNGKELIAVREISGNELIQTYTYEGVEAKRIFKKE
modifications: PEPTIDE (1)...(131) wild-type rat intestinal fatty acid binding protein
With B4, the “DR/DR LNA” value in assay [1] was found to be 1.17. Further, in assay [2], the “DR/DR LA” value was found to be 1.17. Besides, in assay [3], the “DR/DR OA” value turned out to be 1.14. Also, the “DR/DR AA” value in assay [4] is recorded as 1.04. The “DR/DR PA” value in assay [5] is reported as 0.70.

B5: 38F1, 72A (protein, listed as Rattus norvegicus)
chain: AFDGTWKVDRNENYEKFMEKMGINVVKRKLGAHDNLKFTITQEGNKFTVKESSNFRNIDVVFELGVDFAYSAADGTELTGTWTMEGNKLVGKFKRVDNGKELIAVREISGNELIQTYTYEGVEAKRIFKKE
modifications: PEPTIDE (1)...(131) wild-type rat intestinal fatty acid binding protein
Regarding B5, the “DR/DR LNA” value in assay [1] is 0.96. Besides, in assay [2], the “DR/DR LA” value is on record as 0.95. The “DR/DR OA” value in assay [3] was 0.97. Besides, the “DR/DR AA” value in assay [4] came out at 0.91. The “DR/DR PA” value in assay [5] worked out at 0.85.

B6: 36Q, 72A (protein, listed as Rattus norvegicus)
chain: AFDGTWKVDRNENYEKFMEKMGINVVKRKLGAHDNQKLTITQEGNKFTVKESSNFRNIDVVFELGVDFAYSAADGTELTGTWTMEGNKLVGKFKRVDNGKELIAVREISGNELIQTYTYEGVEAKRIFKKE
modifications: PEPTIDE (1)...(131) wild-type rat intestinal fatty acid binding protein
B6: in assay [1], the “DR/DR LNA” value is 1.28 and 0.880. Moreover, the “DR/DR LA” value in assay [2] was 1.26 and 0.927. Further, the “DR/DR OA” value in assay [3] was 1.12 and 0.792. The “DR/DR AA” value in assay [4] was 1.20 and 0.837. Also, the “DR/DR PA” value in assay [5] is 0.81 and 0.777.

B7: 38A2, 72A (protein, listed as Rattus norvegicus)
chain: AFDGTWKVDRNENYEKFMEKMGINVVKRKLGAHDNLKATITQEGNKFTVKESSNFRNIDVVFELGVDFAYSAADGTELTGTWTMEGNKLVGKFKRVDNGKELIAVREISGNELIQTYTYEGVEAKRIFKKE
modifications: PEPTIDE (1)...(131) wild-type rat intestinal fatty acid binding protein
B7: the “DR/DR LNA” value in assay [1] was found to be 1.30. Besides, in assay [2], the “DR/DR LA” value is listed as 1.31. In assay [3], the “DR/DR OA” value was 1.26. The “DR/DR AA” value in assay [4] is 1.23. Also, in assay [5], the “DR/DR PA” value was determined as 0.68.

B8: 36S, 72A (protein, listed as Rattus norvegicus)
chain: AFDGTWKVDRNENYEKFMEKMGINVVKRKLGAHDNSKLTITQEGNKFTVKESSNFRNIDVVFELGVDFAYSAADGTELTGTWTMEGNKLVGKFKRVDNGKELIAVREISGNELIQTYTYEGVEAKRIFKKE
modifications: PEPTIDE (1)...(131) wild-type rat intestinal fatty acid binding protein
On to B8, for which the “DR/DR LNA” value in assay [1] worked out at 0.50. For the same molecule, the “DR/DR LA” value in assay [2] worked out at 0.50. Moreover, in assay [3], the “DR/DR OA” value came to 0.43. Also, the “DR/DR AA” value in assay [4] came out at 0.49. Further, in assay [5], the “DR/DR PA” value came out at 0.42.

B9: 102N, 72A (protein, listed as Rattus norvegicus)
chain: AFDGTWKVDRNENYEKFMEKMGINVVKRKLGAHDNLKLTITQEGNKFTVKESSNFRNIDVVFELGVDFAYSAADGTELTGTWTMEGNKLVGKFKRVDNGKENIAVREISGNELIQTYTYEGVEAKRIFKKE
modifications: PEPTIDE (1)...(131) wild-type rat intestinal fatty acid binding protein
For the molecule B9, the “DR/DR LNA” value in assay [1] was determined as 0.71. For the same molecule, the “DR/DR LA” value in assay [2] was 0.67. Besides, the “DR/DR OA” value in assay [3] is given as 0.69. Besides, in assay [4], the “DR/DR AA” value was found to be 0.64. Moreover, the “DR/DR PA” value in assay [5] was −1.09.

B10: 36L, 72A wt (protein, listed as Rattus norvegicus)
chain: AFDGTWKVDRNENYEKFMEKMGINVVKRKLGAHDNLKLTITQEGNKFTVKESSNFRNIDVVFELGVDFAYSAADGTELTGTWTMEGNKLVGKFKRVDNGKELIAVREISGNELIQTYTYEGVEAKRIFKKE
modifications: PEPTIDE (1)...(131) wild-type rat intestinal fatty acid binding protein
On to B10, for which the “DR/DR LNA” value in assay [1] was determined as 1.00. In addition, the “DR/DR LA” value in assay [2] stood at 1.21. For the same molecule, the “DR/DR OA” value in assay [3] is 1.25. For the same molecule, the “DR/DR AA” value in assay [4] is on record as 1.25. Besides, the “DR/DR PA” value in assay [5] was determined as 1.13.

B11: 36K, 72A (protein, listed as Rattus norvegicus)
chain: AFDGTWKVDRNENYEKFMEKMGINVVKRKLGAHDNKKLTITQEGNKFTVKESSNFRNIDVVFELGVDFAYSAADGTELTGTWTMEGNKLVGKFKRVDNGKELIAVREISGNELIQTYTYEGVEAKRIFKKE
modifications: PEPTIDE (1)...(131) wild-type rat intestinal fatty acid binding protein
As for B11, in assay [1], the “DR/DR LNA” value turned out to be 0.42. The “DR/DR LA” value in assay [2] amounted to 0.38. Besides, the “DR/DR OA” value in assay [3] was 0.41. Moreover, the “DR/DR AA” value in assay [4] turned out to be 0.38. For the same molecule, the “DR/DR PA” value in assay [5] worked out at 0.16.

B12: 102P, 72A (protein, listed as Rattus norvegicus)
chain: AFDGTWKVDRNENYEKFMEKMGINVVKRKLGAHDNLKLTITQEGNKFTVKESSNFRNIDVVFELGVDFAYSAADGTELTGTWTMEGNKLVGKFKRVDNGKEPIAVREISGNELIQTYTYEGVEAKRIFKKE
modifications: PEPTIDE (1)...(131) wild-type rat intestinal fatty acid binding protein
In the case of B12, in assay [1], the “DR/DR LNA” value was 0.56. Besides, the “DR/DR LA” value in assay [2] was 0.54. The “DR/DR OA” value in assay [3] was found to be 0.49. In addition, the “DR/DR AA” value in assay [4] is listed as 0.50. Moreover, the “DR/DR PA” value in assay [5] turned out to be 0.39.

B13: 36P, 72A (protein, listed as Rattus norvegicus)
chain: AFDGTWKVDRNENYEKFMEKMGINVVKRKLGAHDNPKLTITQEGNKFTVKESSNFRNIDVVFELGVDFAYSAADGTELTGTWTMEGNKLVGKFKRVDNGKELIAVREISGNELIQTYTYEGVEAKRIFKKE
modifications: PEPTIDE (1)...(131) wild-type rat intestinal fatty acid binding protein
With B13, the “DR/DR LNA” value in assay [1] was found to be 0.36. For the same molecule, the “DR/DR LA” value in assay [2] is −7.45. Moreover, the “DR/DR OA” value in assay [3] was found to be 0.14. In addition, the “DR/DR AA” value in assay [4] is reported as 0.32. Moreover, the “DR/DR PA” value in assay [5] is given as 0.31.

B14: 38E1, 72A (protein, listed as Rattus norvegicus)
chain: AFDGTWKVDRNENYEKFMEKMGINVVKRKLGAHDNLKETITQEGNKFTVKESSNFRNIDVVFELGVDFAYSAADGTELTGTWTMEGNKLVGKFKRVDNGKELIAVREISGNELIQTYTYEGVEAKRIFKKE
modifications: PEPTIDE (1)...(131) wild-type rat intestinal fatty acid binding protein
In the case of B14, in assay [1], the “DR/DR LNA” value is recorded as 0.29. Also, the “DR/DR LA” value in assay [2] was found to be 0.59. Besides, in assay [3], the “DR/DR OA” value is reported as 0.54. Also, the “DR/DR AA” value in assay [4] was 0.57. In addition, in assay [5], the “DR/DR PA” value is 0.31.

B15: 36M, 72A (protein, listed as Rattus norvegicus)
chain: AFDGTWKVDRNENYEKFMEKMGINVVKRKLGAHDNMKLTITQEGNKFTVKESSNFRNIDVVFELGVDFAYSAADGTELTGTWTMEGNKLVGKFKRVDNGKELIAVREISGNELIQTYTYEGVEAKRIFKKE
modifications: PEPTIDE (1)...(131) wild-type rat intestinal fatty acid binding protein
Regarding B15, the “DR/DR LNA” value in assay [1] was determined as 1.08. The “DR/DR LA” value in assay [2] is recorded as 1.10. The “DR/DR OA” value in assay [3] was 1.12. In addition, in assay [4], the “DR/DR AA” value is listed as 1.23. In addition, in assay [5], the “DR/DR PA” value is listed as 0.97.
